The labels stand for the following.
T1: ADAMTS4 (human, UniProt O75173 213-685, limits assumed)
T1 sequence (looked up): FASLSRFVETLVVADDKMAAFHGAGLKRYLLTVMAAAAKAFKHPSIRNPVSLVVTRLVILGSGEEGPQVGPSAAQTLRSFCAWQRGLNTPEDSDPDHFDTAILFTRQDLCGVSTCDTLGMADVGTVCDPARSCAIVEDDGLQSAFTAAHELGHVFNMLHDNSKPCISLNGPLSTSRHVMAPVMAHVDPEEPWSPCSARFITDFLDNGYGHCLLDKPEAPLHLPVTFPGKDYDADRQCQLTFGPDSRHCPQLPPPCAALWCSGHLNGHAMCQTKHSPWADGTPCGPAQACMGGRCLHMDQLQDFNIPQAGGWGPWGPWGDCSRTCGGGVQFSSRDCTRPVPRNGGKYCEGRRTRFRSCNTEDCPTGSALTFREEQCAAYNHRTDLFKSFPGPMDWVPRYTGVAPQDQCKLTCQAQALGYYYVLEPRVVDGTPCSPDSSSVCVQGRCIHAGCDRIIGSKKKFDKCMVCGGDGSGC

T2: ADAMTS5 (human, UniProt Q9UNA0 262-622, limits assumed)
T2 sequence (looked up): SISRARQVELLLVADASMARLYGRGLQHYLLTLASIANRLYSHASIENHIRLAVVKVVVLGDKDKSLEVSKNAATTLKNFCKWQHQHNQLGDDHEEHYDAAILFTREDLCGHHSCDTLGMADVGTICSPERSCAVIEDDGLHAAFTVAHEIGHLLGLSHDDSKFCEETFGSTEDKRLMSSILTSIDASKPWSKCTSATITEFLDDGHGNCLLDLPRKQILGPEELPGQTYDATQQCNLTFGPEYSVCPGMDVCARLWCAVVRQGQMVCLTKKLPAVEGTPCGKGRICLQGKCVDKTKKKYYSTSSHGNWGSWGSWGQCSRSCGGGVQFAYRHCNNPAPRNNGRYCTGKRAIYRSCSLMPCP

B1: Variant A2M, bait region SEQ ID NO 115 (other)
chain: SVSGKPQYMVLVPSLLHTETTEKGCVLLSYLNETVTVSASLESVRGNRSLFTDLEAENDVLHCVAFAVPKSSSNEEVMFLTVQVKGPTQEFKKRTTVMVKNEDSLVFVQTDKSIYKPGQTVKFRVVSMDENFHPLNELIPLVYIQDPKGNRIAQWQSFQLEGGLKQFSFPLSSEPFQGSYKVVVQKKSGGRTEHPFTVEEFVLPKFEVQVTVPKIITILEEEMNVSVCGLYTYGKPVPGHVTVSICRKYSDASDCHGEDSQAFCEKFSGQLNSHGCFYQQVKTKVFQLKRKEYEMKLHTEAQIQEEGTVVELTGRQSSEITRTITKLSFVKVDSHFRQGIPFFGQVRLVDGKGVPIPNKVIFIRGNEANYYSNATTDEHGLVQFSINTTNVMGTSLTVRVNYKDRSPCYGYQWVSEEHEEAHHTAYLVFSPSKSFVHLEPMSHELPCGHTQTVQAHYILNGGTLLGLKKLSFYYLIMAKGGIVRTGTHGLLVKQEDMKGHFSISIPVKSDIAPVARLLIYAVLPTGDVIGDSAKYDVENCLANKVDLSFSPSQSLPASHAHLRVTAAPQSVCALRAVDQSVLLMKPDAELSASSVYNLLPEKDLTGFPGPLNDQDDEDCINRHNVYINGITYTPVSSTNEKDMYSFLEDMGLKAFTNSKIRKPKMCPQLEEEEGLGSKEEEGLGSPKEEEGLGSKEEEGLGSPKEEEGLGSKLRKYFPETWIWDLVVVNSAGVAEVGVTVPDTITEWKAGAFCLSEDAGLGISSTASLRAFQPFFVELTMPYSVIRGEAFTLKATVLNYLPKCIRVSVQLEASPAFLAVPVEKEQAPHCICANGRQTVSWAVTPKSLGNVNFTVSAEALESQELCGTEVPSVPEHGRKDTVIKPLLVEPEGLEKETTFNSLLCPSGGEVSEELSLKLPPNVVEESARASVSVLGDILGSAMQNTQNLLQMPYGCGEQNMVLFAPNIYVLDYLNETQQLTPEIKSKAIGYLNTGYQRQLNYKHYDGSYSTFGERYGRNQGNTWLTAFVLKTFAQARAYIFIDEAHITQALIWLSQRQKDNGCFRSSGSLLNNAIKGGVEDEVTLSAYITIALLEIPLTVTHPVVRNALFCLESAWKTAQEGDHGSHVYTKALLAYAFALAGNQDKRKEVLKSLNEEAVKKDNSVHWERPQKPKAPVGHFYEPQAPSAEVEMTSYVLLAYLTAQPAPTSEDLTSATNIVKWITKQQNAQGGFSSTQDTVVALHALSKYGAATFTRTGKAAQVTIQSSGTFSSKFQVDNNNRLLLQQVSLPELPGEYSMKVTGEGCVYLQTSLKYNILPEKEEFPFALGVQTLPQTCDEPKAHTSFQISLSVSYTGSRSASNMAIVDVKMVSGFIPLKPTVKMLERSNHVSRTEVSSNHVLIYLDKVSNQTLSLFFTVLQDVPVRDLKPAIVKVYDYYETDEFAIAEYNAPCSKDLGNADYKDDDDKGASHHHHHH
B2: Variant A2M, bait region SEQ ID NO 114 (other)
chain: SVSGKPQYMVLVPSLLHTETTEKGCVLLSYLNETVTVSASLESVRGNRSLFTDLEAENDVLHCVAFAVPKSSSNEEVMFLTVQVKGPTQEFKKRTTVMVKNEDSLVFVQTDKSIYKPGQTVKFRVVSMDENFHPLNELIPLVYIQDPKGNRIAQWQSFQLEGGLKQFSFPLSSEPFQGSYKVVVQKKSGGRTEHPFTVEEFVLPKFEVQVTVPKIITILEEEMNVSVCGLYTYGKPVPGHVTVSICRKYSDASDCHGEDSQAFCEKFSGQLNSHGCFYQQVKTKVFQLKRKEYEMKLHTEAQIQEEGTVVELTGRQSSEITRTITKLSFVKVDSHFRQGIPFFGQVRLVDGKGVPIPNKVIFIRGNEANYYSNATTDEHGLVQFSINTTNVMGTSLTVRVNYKDRSPCYGYQWVSEEHEEAHHTAYLVFSPSKSFVHLEPMSHELPCGHTQTVQAHYILNGGTLLGLKKLSFYYLIMAKGGIVRTGTHGLLVKQEDMKGHFSISIPVKSDIAPVARLLIYAVLPTGDVIGDSAKYDVENCLANKVDLSFSPSQSLPASHAHLRVTAAPQSVCALRAVDQSVLLMKPDAELSASSVYNLLPEKDLTGFPGPLNDQDDEDCINRHNVYINGITYTPVSSTNEKDMYSFLEDMGLKAFTNSKIRKPKMCPQLEAQEAGEGKEEEGLGSPVSQELGQRSELEGRGSPTEGEARGSKLRKYFPETWIWDLVVVNSAGVAEVGVTVPDTITEWKAGAFCLSEDAGLGISSTASLRAFQPFFVELTMPYSVIRGEAFTLKATVLNYLPKCIRVSVQLEASPAFLAVPVEKEQAPHCICANGRQTVSWAVTPKSLGNVNFTVSAEALESQELCGTEVPSVPEHGRKDTVIKPLLVEPEGLEKETTFNSLLCPSGGEVSEELSLKLPPNVVEESARASVSVLGDILGSAMQNTQNLLQMPYGCGEQNMVLFAPNIYVLDYLNETQQLTPEIKSKAIGYLNTGYQRQLNYKHYDGSYSTFGERYGRNQGNTWLTAFVLKTFAQARAYIFIDEAHITQALIWLSQRQKDNGCFRSSGSLLNNAIKGGVEDEVTLSAYITIALLEIPLTVTHPVVRNALFCLESAWKTAQEGDHGSHVYTKALLAYAFALAGNQDKRKEVLKSLNEEAVKKDNSVHWERPQKPKAPVGHFYEPQAPSAEVEMTSYVLLAYLTAQPAPTSEDLTSATNIVKWITKQQNAQGGFSSTQDTVVALHALSKYGAATFTRTGKAAQVTIQSSGTFSSKFQVDNNNRLLLQQVSLPELPGEYSMKVTGEGCVYLQTSLKYNILPEKEEFPFALGVQTLPQTCDEPKAHTSFQISLSVSYTGSRSASNMAIVDVKMVSGFIPLKPTVKMLERSNHVSRTEVSSNHVLIYLDKVSNQTLSLFFTVLQDVPVRDLKPAIVKVYDYYETDEFAIAEYNAPCSKDLGNADYKDDDDKGASHHHHHH
B3: Variant A2M, bait region SEQ ID NO 113 (other)
chain: SVSGKPQYMVLVPSLLHTETTEKGCVLLSYLNETVTVSASLESVRGNRSLFTDLEAENDVLHCVAFAVPKSSSNEEVMFLTVQVKGPTQEFKKRTTVMVKNEDSLVFVQTDKSIYKPGQTVKFRVVSMDENFHPLNELIPLVYIQDPKGNRIAQWQSFQLEGGLKQFSFPLSSEPFQGSYKVVVQKKSGGRTEHPFTVEEFVLPKFEVQVTVPKIITILEEEMNVSVCGLYTYGKPVPGHVTVSICRKYSDASDCHGEDSQAFCEKFSGQLNSHGCFYQQVKTKVFQLKRKEYEMKLHTEAQIQEEGTVVELTGRQSSEITRTITKLSFVKVDSHFRQGIPFFGQVRLVDGKGVPIPNKVIFIRGNEANYYSNATTDEHGLVQFSINTTNVMGTSLTVRVNYKDRSPCYGYQWVSEEHEEAHHTAYLVFSPSKSFVHLEPMSHELPCGHTQTVQAHYILNGGTLLGLKKLSFYYLIMAKGGIVRTGTHGLLVKQEDMKGHFSISIPVKSDIAPVARLLIYAVLPTGDVIGDSAKYDVENCLANKVDLSFSPSQSLPASHAHLRVTAAPQSVCALRAVDQSVLLMKPDAELSASSVYNLLPEKDLTGFPGPLNDQDDEDCINRHNVYINGITYTPVSSTNEKDMYSFLEDMGLKAFTNSKIRKPKMCPQLEEGEARGSTAQEAGEGPKEEEGLGSSELEGRGSPVSQELGQRKLRKYFPETWIWDLVVVNSAGVAEVGVTVPDTITEWKAGAFCLSEDAGLGISSTASLRAFQPFFVELTMPYSVIRGEAFTLKATVLNYLPKCIRVSVQLEASPAFLAVPVEKEQAPHCICANGRQTVSWAVTPKSLGNVNFTVSAEALESQELCGTEVPSVPEHGRKDTVIKPLLVEPEGLEKETTFNSLLCPSGGEVSEELSLKLPPNVVEESARASVSVLGDILGSAMQNTQNLLQMPYGCGEQNMVLFAPNIYVLDYLNETQQLTPEIKSKAIGYLNTGYQRQLNYKHYDGSYSTFGERYGRNQGNTWLTAFVLKTFAQARAYIFIDEAHITQALIWLSQRQKDNGCFRSSGSLLNNAIKGGVEDEVTLSAYITIALLEIPLTVTHPVVRNALFCLESAWKTAQEGDHGSHVYTKALLAYAFALAGNQDKRKEVLKSLNEEAVKKDNSVHWERPQKPKAPVGHFYEPQAPSAEVEMTSYVLLAYLTAQPAPTSEDLTSATNIVKWITKQQNAQGGFSSTQDTVVALHALSKYGAATFTRTGKAAQVTIQSSGTFSSKFQVDNNNRLLLQQVSLPELPGEYSMKVTGEGCVYLQTSLKYNILPEKEEFPFALGVQTLPQTCDEPKAHTSFQISLSVSYTGSRSASNMAIVDVKMVSGFIPLKPTVKMLERSNHVSRTEVSSNHVLIYLDKVSNQTLSLFFTVLQDVPVRDLKPAIVKVYDYYETDEFAIAEYNAPCSKDLGNADYKDDDDKGASHHHHHH

The first assay concerns the target T1, ADAMTS4. The experiment in a line: cell-based or functional assay.
On to B1, for which the “Protease Inhibition (% of WT)” value is 108 % of WT.

Take B2: the “Protease Inhibition (% of WT)” value is 118 % of WT.

As for B3, the “Protease Inhibition (% of WT)” value is 115 % of WT.

For another assay, the target named is T2, ADAMTS5. The experiment in a line: cell-based or functional assay.
For B1, the “Protease Inhibition (% of WT)” value was 163 % of WT.

In the case of B2, the “Protease Inhibition (% of WT)” value is 237 % of WT.

With B3, the “Protease Inhibition (% of WT)” value was 92 % of WT.

Another assay concerns the target MMP13 (human, UniProt P45452 104-471, limits assumed). The assay is described as follows: cell-based or functional assay.
With B1, the “Protease Inhibition (% of WT)” value is 78 % of WT.

Regarding B2, the “Protease Inhibition (% of WT)” value was 75 % of WT.

Consider B3, for which the “Protease Inhibition (% of WT)” value is 27 % of WT.
